Target: CYP97C2 (rice) expressed in E. coli from pRQ-C2 (pCDFDuet-1-CYP97C2) (Rice (O. sativa))
Test: cell-based or functional assay

Row | lutein, % of total carotenoids in alpha- and beta-carotene accumulating E. coli with co-expressed hydroxylases (% of total carotenoids) | Substance
1 | 1.58 | HYD4 (maize) expressed in E. coli from pRQ-H4 (pCOLADuet-1-HYD4) (enzyme)
2 | 29 | CYP97A4 (rice) expressed in E. coli from pRT-A4 (pCOLADuet-1-CYP97A4) (enzyme)
